Assay results reported in patent publication US20170306044A1 (ENGMAB, published 2017).
Where “and” joins values, the source holds several entries; their conditions need not be identical. Equal values may be shown once.

Assays:
[1] = molecular target: T1, human ROR1 (tyrosine-protein kinase transmembrane receptor ROR1) (human, UniProt Q01973 30-937); assay: flow cytometry, maximum MFI at 10 µg/mL antibody, PA-1 against SK-OV-3 cells
T1 construct: whole, on cells; the assays used the protein on cells
Procedure: (§1) a) The level of expression of ROR1 is measured on human ovarian cancer cell lines by flow cytometry including PA-1, MCAS, EFO-21, COLO-704, SW-626, KURAMOCHI, OVSAHO, SNU-119, COV362, OVCAR-4, COV318, TYK-nu, ON/KATE, CAOV-4, OAW28, CAOV-3, 59M, ONCO-DG-1, OVCAR-3. OVCAR-5, ES-2, COV-504, OV-90, RMUG-S, COV-644, SNU-840, OVISE, OAW42, OVTOKO, OVMANA, COV-434, OV56, SK-OV-3N2780, IGROV-1, and/or TOV-21G. Briefly, cells are harvested, washed, counted for viability, resuspended at 50,000 cells/well of a 96-well round bottom plate and incubated with Alexa488-labeled anti human ROR1 antibody for 30 min at 4° C. All ROR1 and isotype control antibodies are titrated and analyzed in final concentration range between 0.01-100 nM. […] At the end of incubation time, cells are centrifuged (5 min. at 350 x g), washed twice with FACS buffer, resuspended in 100 u.l FACS buffer and analyzed on a CantoII device running FACS Diva software. Expression of ROR1 is then quantitified as the median fluorescence intensity (MFI) and graphs showing the MFI in function of ROR1 antibody concentrations are plotted. EC50 values are then measured using Prism software (GraphPad). […] The calculated EC50s for binding of ROR1 Mab1 to SK-OV-3 are extrapolated values and may be underestimated. […]

[2] = molecular target: T1, human ROR1 (tyrosine-protein kinase …); assay: flow cytometry on PA-1 ovarian cancer cells (MFI against antibody concentration)
Procedure: as §1

[3] = molecular target: T1, human ROR1 (tyrosine-protein kinase …); assay: flow cytometry on SK-OV-3 ovarian cancer cells (MFI against antibody concentration); extrapolated value
Procedure: as §1

T1 sequence (Q01973 30-937): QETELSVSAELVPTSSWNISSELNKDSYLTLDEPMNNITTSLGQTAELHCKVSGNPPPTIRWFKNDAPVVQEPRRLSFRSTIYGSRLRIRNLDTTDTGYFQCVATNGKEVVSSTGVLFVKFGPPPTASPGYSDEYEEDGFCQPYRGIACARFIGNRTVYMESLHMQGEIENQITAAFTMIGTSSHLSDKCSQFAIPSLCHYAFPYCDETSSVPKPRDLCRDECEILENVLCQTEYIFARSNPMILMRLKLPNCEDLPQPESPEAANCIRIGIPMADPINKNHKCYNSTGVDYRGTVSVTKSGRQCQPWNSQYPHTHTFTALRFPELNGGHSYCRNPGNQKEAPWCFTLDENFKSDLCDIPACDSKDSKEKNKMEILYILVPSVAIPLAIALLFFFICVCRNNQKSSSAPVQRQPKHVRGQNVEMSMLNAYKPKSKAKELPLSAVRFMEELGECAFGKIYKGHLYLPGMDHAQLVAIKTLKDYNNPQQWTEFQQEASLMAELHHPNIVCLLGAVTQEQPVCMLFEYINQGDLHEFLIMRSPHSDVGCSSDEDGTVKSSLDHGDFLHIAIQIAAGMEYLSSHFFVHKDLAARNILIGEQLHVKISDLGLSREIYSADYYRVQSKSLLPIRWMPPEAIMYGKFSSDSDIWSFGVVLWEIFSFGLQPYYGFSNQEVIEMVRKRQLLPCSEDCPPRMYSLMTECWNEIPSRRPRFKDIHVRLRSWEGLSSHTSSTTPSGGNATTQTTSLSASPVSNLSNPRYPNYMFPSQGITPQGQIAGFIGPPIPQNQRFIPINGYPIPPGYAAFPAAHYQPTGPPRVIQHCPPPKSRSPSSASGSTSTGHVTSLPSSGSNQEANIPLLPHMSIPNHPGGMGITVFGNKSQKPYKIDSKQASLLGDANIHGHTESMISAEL

B1: ROR1 Mab1 IgG (anti-ROR1 antibody MAB1) (antibody, V domains shown)
VH: QEQLVESGGRLVTPGGSLTLSCKASGFDFSAYYMSWVRQAPGKGLEWIATIYPSSGKTYYATWVNGRFTISSDNAQNTVDLQMNSLTAADRATYFCARDSYADDGALFNIWGPGTLVTISS
VL: ELVLTQSPSVSAALGSPAKITCTLSSAHKTDTIDWYQQLQGEAPRYLMQVQSDGSYTKRPGVPDRFSGSSSGADRYLIIPSVQADDEADYYCGADYIGGYVFGGGTQLTVTG
notes: also called ROR1 IgG; Mab1 anti-ROR1 antibodies
For B1, the “maximum MFI on PA-1 cells relative to SK-OV-3 cells” value [1] was roughly 3 fold, the EC50 [2] was 0.87 nM and 0.13 µg/mL and the EC50 [3] was ~4.62 nM and ~0.69 µg/mL.
